These results are taken from the DeepSol protein solubility set.

This data set can be described thus: soluble on expression in E. coli; label from the status in PepcDB or PDB records.
For “KMPSPYSHKEFVKEIAPTAQKLSKIYGVRSSIIIGQAALDSHFGSTLLASKYHNLFSIEASPGQGAVRLKSHEYKNGRWQEVTNRYLVYESWKESLYDYMAILHGNKIWDKALYTTMMTSSGYKTVARALQAAGFNSDPNYADKLIAVIEENNL”, the “soluble on expression in E. coli” value was “soluble”.

In the case of “MGSDKIHHHHHHDAGAPAFLSAGRVADGAYNLYGLDRRGRPLFHLPIPDRGHAAAAHPQRAEAVAFARRPGRFALVLNCVSGAEIARLSAPEGRHFYGHGAFDAEGRVLFTTENDYEAGQGRIGLWDAGAGYRRIGEVASGGVGPHDIRLMPDGQTLVVANGGVETHPDTGRVKLNLPVMQPNLSYLSLAGEVLEVVRMPPEHRMNSIRHLDLRADGLVAFAMQWQGEGTELRPVLGLHRRGTAPVAVTGNEAEMRAMNGYGGSVIFYDQGRRVAVSSPRGGIVQLSDVAAGRIIGGVAITDVCGLGVTGGGLVASSGSGVFTRVGGKEASRSEIAWDNHLVAVNRA”, the “soluble on expression in E. coli” value is listed as “not soluble”.

Consider “MSPAFRAMDVEPRAKGVLLEPFVHQVGGHSCVLRFNETTLCKPLVPREHQFYETLPAEMRKFTPQYKGVVSVRFEEDEDRNLCLIAYPLKGDHGIVDIVDNSDCEPKSKLLRWTTNKKHHVLETEKTPKDWVRQHRKEEKMKSHKLEEEFEWLKKSEVLYYTVEKKGNISSQLKHYNPWSMKCHQQQLQRMKENAKHRNQYKFILLENLTSRYEVPCVLDLKMGTRQHGDDASEEKAANQIRKCQQSTSAVIGVRVCGMQVYQAGSGQLMFMNKYHGRKLSVQGFKEALFQFFHNGRYLRRELLGPVLKKLTELKAVLERQESYRFYSSSLLVIYDGKERPEVVLDSDAEDLEDLSEESADESAGAYAYKPIGASSVDVRMIDFAHTTCRLYGEDTVVHEGQDAGYIFGLQSLIDIVTEISEESGE”, for which the “soluble on expression in E. coli” value is “not soluble”.

On to “MTLYSFRLGLLLFCSLLFGCTAPTPAPVSGLGKDYNKVERGSYRGSYYEVKKGDTLYFIAYLTDKDVNDLISYNDLAPPYTIHPGQKIKLWLPNYTPPAYGGTGGAATVAVASSTSASVAKAATTATVAQTVSKSSNTKNVQNGSTNSQNLTKKDPVKTVDQTKTKEYVEPVGKQNVNVNVAKAKPSDEKIAKWLWPTKGRVIKNFSAGDQGNKGIDIAGQRGQAVVATADGTVVYSGNALRGYGNLIIIKHNEHYLSAYAHNDQLLAKEGQTVQAGQKIATMGSSGTNSVRLHFEIRYQGKSVNPKRYLP”, for which the “soluble on expression in E. coli” value was “not soluble”.

For “AIAGSLGIVTNDPSPYSVHFHLTGFGRFHRVSQNPTEFLVKQFVSFCEERRGLHEAARVVTTTVATTSVKGAQQALDEVYGKLHRDKSVRNVIIHCGVDASANCFRLEERAYNEASFSCPDESGWQPKVVPIDDTKPVDSFLVTSINIRQAVEELEKKGFHVKSSEDAGRFLCNWIYYQSLTRAQCEFSVKVVFVHFPPIQDSQEIQSYCEFLLQLLNVITTHELSSIDE”, the “soluble on expression in E. coli” value was “soluble”.

With “MNLEPPKAEIRSATRVMGGPVTPRKGPPKFKQRQTRQFKSKPPKKGVQGFGDDIPGMEGLGTDITVICPWEAFNHLELHELAQYGII”, the “soluble on expression in E. coli” value is reported as “soluble”.

Regarding “MSFTEDQEKIALEILSKDKHEFYEILKVDRKATDSEIKKAYRKLAIKLHPDKNSHPKAGEAFKVINRAFEVLSNEEKRSIYDRIGRDPDDRQMPSRGAASGFRGSAGGSPMGGGFEDMFFNSRFGGQRAGPPEDIFDFLFNAGGSPFGASPFGPSASTFSFGGPGGFRVYTNNRGGSPFMRQQPRSRQQQQQAEENAVNSQLKN”, the “soluble on expression in E. coli” value was “not soluble”.

As for “MQVLNTKSETKQENETMQPPYIQERLKSLNDIETQLCSMLQEASQVTFIFGELKRGNESVKPQFENHVKQFYERLDKSTTQLRKEIQLLDENVGTRLLPINVNKKALGQDTEKMEEQLDLLSAILDPSKSK”, the “soluble on expression in E. coli” value is recorded as “soluble”.

As for “MAHHHHHHMTLTSRTAQAAHAQNDVAAQRPPPPLYPSMNVGASAVHPHQNRPCHAYDSQPAWQNPQLGTAPPAVIAGAPLAPEQQQQQTHQQGRSNQPQSIFGGRFTLLDRLGSGGFGEVYRAEECDQLVPLAVKVERVTDTNALPEQSFLFHEAKVMQEIHKSIQAYMAAQQQHQLLRLQQEKAQSGNGRRANNEAAAAADEVRQEKVGIAKLKYYGQDGMSRVLIMSLHGQSVANVHRHQGRLSLFATVMIADQVLRSLEHVHRAGYVHADLKPDNILLGREDPEQLYLVDFGLSVHFRDRKGKHRPLVTNHSFVGTPRYASLRTHMGHTLSRRDDIEQLVYVMIYLFRGRLPWSGLRISDPDAKEKRIAQMKAEMTLDSICAGCPEAFRDVLNYARCMEFEEEPQYQFLHVLLCSLRDSCTELSSDPSCVPANGSGGVMPQMLTLNVNCSTRQHPKDQNGGDAAANGGAVGVTAAEAGLVQNTNIVSGVVEQIDGVAENPMMMSSRGTGAPAFFSDAIGQGFLSGNGTDAGPLSPRIDCLNGQPFSPPPLDLQRPCGSPQLRQMR”, the “soluble on expression in E. coli” value is given as “not soluble”.

“MRKSLEIGKCVVLEVLTPRGTNLGRFMEFTEEAWKTGIDAFTVTDMPMGRVRMAPWAASHLLVESGKDVLMHFTRNTRNMIRIQSDLLGCHALGVKNLLLLSGDNPSHGDYPETTSVNDIDILDLIRLTKLMNEGTDLAGNKIYGKTDFFVGGALNPFSDKDIKRAKQKIEAGVDFLVTQPLFNSEVAKKIKEELNTKILASIVFFENAKQMSYFSSVPGIEIPDEIVNSTEKGDDYLKEKSFESVLRFVEETKGVLDGFYIVAIVKDLEKIRKVVEIAKS”: the “soluble on expression in E. coli” value is “not soluble”.

For “MSTVGGIEQLIPDSVSTSFIETVNGSHQFTIQGYSLAKGMSPGKFIQSDIFSVGGYDWAIYFYPDGKNPEDQSSYISLFIALASDSNDIRALFELTLMDQSGKGKHKVHSHFDRALEGGPYTLKYKGSMWGYKRFFKRSALETSDYLKDDCLVINCTVGVVRARLEGPKQYGIVLPLSNMGQGLKDLLDSEVGCDIAFQVGDETYKAHKLILAARSPVFRAQFFGPIGNNNVDRIVIDDIEPSIFKAMLSFIYTDVLPNVHEITGSTSASSFTNMIQHLLAAADLYDLARLKILCEVLLCEKLDVDNVATTLALAEQHQFLQLKAFCLEFVASPANLGAVMKSEGFKHLKQSCPTLLSELLNTVAAADKSSTSGQSNKKRSASSVLGCDTTNVRQLRRRTRKEVRAVS”, the “soluble on expression in E. coli” value is given as “not soluble”.

In the case of “QNFAIPTSSLEKTLLIGDYLFVSKLSYGPRSPMTPLGVPLTHNTMPLTGGKSFSDKPLLPYKRLKGFGHVKEGDLVVFNFPAGDTVAVKQPNPDYYMWKKLVGREELWSNPDFYGEIVYRPVDRRDHYVKRCVGMPGQELSIRNNQIYIDGKEQRNPRNMQLNYLVRMSREMSVDLIDELGISYDDVRAASSEELKASVGSNLIDSASNQPQIIYHLPLTQGMLDKLQAEPSFVKAVEEPTPIGPLYPLEYETGWTRDNYGPIVIPAKGMTVRLTPLNLALYSRCIRNFEGNKLVQKADGTVLINGRPADSYTFKMDY”, the “soluble on expression in E. coli” value was “not soluble”.

As to “MGSDKIHHHHHHMATELPSLKGLQAFEAAARYRSVTLASNELNVTPGAVSLQIRELEARLGVQLFFRKPRSIQLTREGERYYGALRTAFRMMREATAELTARSEITVLTLSCTPTFAVQWLMPRLPSFQQQHPHVDVRISVTNRLVDFSRDDVDLAVRHGFGRYEGLESIRFIDDSTLPVCAPQLLEKYGPLREAGDLKSVPLLHDENRNEWRRWLEAAGASEVDASGGTVFIDSNGALDAAKAGHGIALTRRSLVSRELVEGALIAPFGTDMASTLAYFLVYPRRMLDNPDLVTLIDWMLSQAGSTEAGSL”, the “soluble on expression in E. coli” value is given as “not soluble”.

Take “MGSDKIHHHHHHMNKTMWSIGFQKHLPINEEASLFRFETAVPQPEGRDLLVKVDAVSVNPIDVAVRKNGTETLDEPKVIGWDAVGTVIAKGASAGYFEIGDRVFYAGSFKRAGSDSEYQLVDERVVGHAPEKLSNAEAAAMPLTSLTAWEALFEQLEIDREDVQGNADKSILIINGAGGVGSIATQLAQKAGLHVIASASRPETIEWCLKHGADETVNHRNNLIDEVRNLGHQYVDYILELNNIDAHWDEMVELIKPNGRMTSITQNHEPVDLKALKHKRVTFAWEWMYTKSYYETPDMETQHVYLDEIARLLDAGELISTLTKQLSPINVENLKQAHKLVEGNHMMGKVVVENLED”: the “soluble on expression in E. coli” value is on record as “not soluble”.

As to “MGSDKIHHHHHHMREAVMCRFVAYLGRPTLLENVLVRPKNSIIMQSLHARETKYRTNGDGFGLGWYSPEVSSDPALFTSVYPAWNDRNLLHLTAKIQSPCFFAHVRSASAGGVTNYNCHPFIYGDWMLMHNGEINDFIDVKRHIRHLLDDDIYHWVKGQTDSEHLFGLFLQLAKGRDITQLSVAADVLQETINKILEVIGQFGHSGPSYFNICLTNGKKIIATRYCSHEKKKPLTLHYLIGYVLSTQGLWIKEEGNPAYVVVSSERLNDLDEGWEDVPPQHMILIDENKNIQLRPLQTLG”, the “soluble on expression in E. coli” value is recorded as “not soluble”.

In the case of “MNIAIIGGGIAGLATAHLLCDDHRVTLFEANDYLGGHTNTVDVSLDGTTLAVDTGFIVFNERTYPNFIRLLERLNVASRPSVMSFSVTSERNGLEYCATNLDTLFAQRRNFLNRPFWRMLREIVRFNREARELYDSHEMTLTLGDYLKNRGYSVTFVENFLVPMGAAIWSADPKRFAMFPAAAFVRFFTNHGILNVVDQPRWRVVAGGSREYVAPLARPFRDRVRLSTPVDRVRRFPDRVAVTTRGGETEYFDQVVLACHSDQALAMLTDPSDAERELLSAIPYQENDTVLHTDSRLLPGLPKARASWNCRIPRHERDGVFVTYWMNRLQSLATSTDFCVTLNGTEAIAPERIIRRITYHHPVYSPAAFEAQKRRDEISGTNRTWYCGAYWGYGFHEDGLNSALAVCRRFGRGLLEHHHHHH”, the “soluble on expression in E. coli” value was “not soluble”.

For “MTVTSSAAIDIGGGGGGRRSDRLDSDRTSEDMSFIASPANESFQIGASFVDVQNESSGSIDTATATLHELNYTFGMPPVTEESENMPQNYETVVELLPGEERAPINKLTEFPIEGGSLFVTNFRIVVILKDKEVEEALRFLVFPLQDIEQIDLAIPAFIHLSLKIGRMFTICFKTAEDAALVHKILYTAFQRLNRPISSIYTSRPQDWTSKNTDNPMQSLNAFAWKFSEAVDELDRDGKLPSWLLRADSVAQEITHIDFNRLGMSEHFQISSVNENFEVCPTYPEKIIVPKGITDDDIRKGAPYRSIGRFPAVIWRCRKTRAVLMRSSQPQVGILSWRNPTDEKIIEEAVKASRIEGEEKKQFIIMDARGYTSAFANRARSGGFENTEYYQQAKLEFLGLPNIHAVRGSFNNVRTMLHNLGPNEQLLTSLQTTGWLLNLSNLLVNAANCADHLSKGHSVLVHCSDGWDRTTQVTTLAKIMLDEYYRTVKGFEELIRRDWIAFGHKLYDRQLVAFGNWGTSDERSPVFLQFLEAVRHLQREQPTLFQFTHAYLIKLAKHAYSGLFGSFLFNSHKERREAMEKCKGTLVDIWRFIGPHNEEYVNQSFDEHYTGAVKPVNVSVINLRVWHEVFADEEEHYTQIFSPKEERPLSGCTTPMNTSTSTNLVKSKSSESINSLNVDGSAKESSQQHPTCSTTPSDNTNSLPMSTSFIQQSLYQPKVRGVAAIDRDGVIRFEDDEQAMLRKKNKLRAEEIRRKDEKIEELRRRAVLDTNKVSPGQRQSYSESDVETTGTLERVMSDVSMVDPVNELPHFKPNTTWEGESGHCAYCKKEFNKLSVYVEDRQHHCRNCGRVVCEDCSKNRFSVIEEGKSVQKRACDSCYDSMHETDLKLSSSSTTTTSSSTKIENDSNVPGLDNNSDNVSENVSENAIPDIIVEEKEAEDPIKEAESPSKETKCPKTLRNFISFSPKSSMRKNKVHSRDPLKSIDEGSSSQQAESDDVLDVNEQPL”, the “soluble on expression in E. coli” value is listed as “not soluble”.
